Laboratory results as given in the DeepSol protein solubility set.

Assay: soluble on expression in E. coli; label from the status in PepcDB or PDB records

Row | Sequence | soluble on expression in E. coli
1 | MVESNKTAADTYSLAIFRAIRRLQQAAEIHSKRLSRYGGLTPLQLLILHVLAVEGELTATQLAKLVSLSQASLSGVLDRLEGRGLLYRRRDEQDRRKSWLHLDPAGHEALAEAPPLLPEYVIERFAALPEWERHGLLAALLRAADLFGLPEEDVEEE | not soluble
2 | MVGHVLYGWRDRPRRGEVDYPHTENIRMGHTWDSKRDVSKFDKSWSDQNIVDAIVATLENPDYALSGKVKRVVWKDIHGTTVRVSYNVCLMVGVISDRAYSDTPDRKAKRIVE | not soluble
3 | MVGPLNGAIGDITGAASELENIPFIGPAIGAKLQRTMRGINVAQAKVGQVVAMYGRATSAVSQVQERIGTLKEQASKASAAINRVAGKISPSLGNIVPTGSFASQATPAPEAVKPFPHLLIIQPLKPEAQPYYFNLDTAAFDELRRQTAFRWAGQERLTRSIAQQAVGLGDDKLSLKGSIFPGFKGGLKQLNTLRSMGRNLQPLSLTTGYGEVLGNWCLLSVDEEQSNLLAGGIPRKQGFSLEFVSYGDDLQNV | not soluble
4 | MVIKFSSNTTNPPTMIYMGVDKVENEDLIKYGWPEDVWFHVDKLSSAHVYLRLHSGMTIDSIPEALLIDCCQLVKQNSIEGCKLNNVAIVYTMWSNLKKTGDMAVGQVGFHSHKQVKHTVVPTKINEIVNRLEKTRRKDDIDYKEERDARDAKERQKLKKLEQERKDREKKEMLAQNEKKRIEGYEDVDWDAGATTRNDVDPGNLSDDFM | not soluble
5 | MVINSINWLFSEVVAMAVGEKITISVIKADVGGWPGHSRVHPALIEKAREVLSEAQKNGTIIDFYVTYAGDDLQLIMTHKKGVDSPEVHGLAWEAFKKATEVAKELGLYGAGQDLLKDAFSGNVRGLGPSVAEMEITLRKSEPIVTFHLDKTEPGAFNLPIFRMFADPFNTAGLVIDPKMHMGFRFEIWDILEHKKVIMSSPEEMYDILALIGAKSRYVIKRVYPKEGHPVPKDEPVAVVSTEKLYEVAGEYVGKDDPVAIVRAQSGLPALGEVLEPFAFPHLVSGWMRGSHNGPLMPVPLKYATPTRFDGPPRAVALGWQISPEGKLIGPVDLFDDPAFDWARQKALEITDYIRRHGPFEPHRLPSEEMEYTTLPGVLEKLKDRFEPIE | soluble
6 | MVIRVYIASSSGSTAIKKKQQDVLGFLEANKIGFEEKDIAANEENRKWMRENVPENSRPATGYPLPPQIFNESQYRGDYDAFFEARENNAVYAFLGLTAPPGSKEAEV | soluble
7 | MVKDEVIKQISTPLTSPAFPRGPYKFHNREYFNIVYRTDMDALRKVVPEPLEIDEPLVRFEIMAMHDTSGLGCYTESGQAIPVSFNGVKGDYLHMMYLDNEPAIAVGRELSAYPKKLGYPKLFVDSDTLVGTLDYGKLRVATATMGYKHKALDANEAKDQICRPNYMLKIIPNYDGSPRICELINAKITDVTVHEAWTGPTRLQLFDHAMAPLNDLPVKEIVSSSHILADIILPRAEVIYDYLK | soluble
8 | MVKDKQKAIFSENLNSYIAKSEKTQLEIAKSIGVSPQTFNTWCKGIAIPRMGKVQALADYFNINKSDLIEDKKLNIDTVPIESGYTIPVLGRVAAGYGKEAVEEVIGQIEISPSMAAKGDYFGLLIKGDSMIPTLYDGDTVIVERTDDAESGDLVIALVNGSDATCKRLQKYAEGIALIPQNPVYEPMRFTESEIDTTPVKILGKVVEMRRKFLEHHHHHH | soluble
9 | MVKKEFHLTHTFKNVSKLEDGKTLYGPEEEHFNIPWQLSFCRKEEFVGVFLRCLRPTDGIVPWEINADCILKLTSSAGKCLSHSSTYIFQSIGGFGRRKFVSWDTLVKDHLVNDSIIMEATVMITKMTGISKKKLRSFEKSEEQFSDVVLAVEDKKFFVLRKFLASHSSYFKSLLLGTFAEADKSEIKHEAINSIDFQNFLEVLYGEPVIDDDDVEGILHLAHMYDVPVAIRKCEEFLIEKSEKSMRDQLEIAKKYQLDNLKKSCLSKVNTVEEIKAALMCDLADMDPTVVAALFRKSLALL | not soluble
10 | MVKQLKFSEDARQAMLRGVDQLANAVKVTIGPKGRNVVLDKEFTAPLITNDGVTIAKEIELEDPYENMGAKLVQEVANKTNEIAGDGTTTATVLAQAMIQEGLKNVTSGANPVGLRQGIDKAVKVAVEALHENSQKVENKNEIAQVGAISAADEEIGRYISEAMEKVGNDGVITIEESNGLNTELEVVEGMQFDRGYQSPYMVTDSDKMVAELERPYILVTDKKISSFQDILPLLEQVVQSNRPILIVADEVEGDALTNIVLNRMRGTFTAVAVKAPGFGDRRKAMLEDLAILTGAQVITDDLGLDLKDASIDMLGTASKVEVTKDNTTVVDGDGDENSIDARVSQLKSQIEETESDFDREKLQERLAKLAGGVAVIKVGAASETELKERKLRIEDALNSTRAAVEEGIVAGGGTALVNVYQKVSEIEAEGDIETGVNIVLKALTAPVRQIAENAGLEGSVIVERLKNAEPGVGFNAATNEWVNMLEEGIVDPTKVTRSALQHAASVAAMFLTTEAVVASIPEKNNDQPNMGGMPGMM | not soluble
11 | MVKSLQLAHQLKDKKILLIGGGEVGLTRLYKLIPTGCKLTLVSPDLHKSIIPKFGKFIQNEDQPDYREDAKRFINPNWDPTKNEIYEYIRSDFKDEYLDLEDENDAWYIIMTCIPDHPESARIYHLCKERFGKQQLVNVADKPDLCDFYFGANLEIGDRLQILISTNGLSPRFGALVRDEIRNLFTQMGDLALEDAVVKLGELRRGIRLLAPDDKDVKYRMDWARRCTDLFGIQHCHNIDVKRLLDLFKVMFQEQNCSLQFPPRERLLSEYCSS | not soluble
12 | MVLFTRFMLMGIAMPQISRTALVPYSAEQMYQLVNDVQSYPQFLPGCVGSRVLESSPAQMTAAVDVSKAGISKTFTTRNQLTRNQSILMHLVDGPFKKLIGGWKFTPLSPEACRIEFQLDFEFTNKLIELAFGRIFKELASNMVQAFTVRAKEVYRAGLEHHHHHH | not soluble
13 | MVLLVMKSSTTIITAYFDIGRGDWTANKGFREKLARSVDVYFSYFERLAALENEMIIFTSPDLKPRVEAIRNGKPTTVIVIDIKKKFRYIRSRIEKIQKDESFTNRLEPRQLKNPEYWSPEYVLVCNLKAYFVNKAINMGLVKTPLVAWIDFGYCRKPNVTRGLKIWDFPFDESKMHLFTIKKGLTVTSQQQVFDFMIGNHVYIIGGAIVGSQHKWKEFYKLVLESQKITLNNNIVDDDQGIFVMCYYKRPDLFNLNYLGRGKWFDLFRCFRSNTLGAKMQALRIFLSRK | not soluble
14 | MVLYPLEAEVTMVTSFQDADPMGVIYHGNFFRYFEEARRVLMEKIQYGYRDMQDSGYMWPIIDTRVKYVKAIPFNHTIRITAQLTEWENRLRVDYVIYDAETNQRMCKAHTTQVAVSIEKQEMCFVSPAVFLDKVEQWHNHGLEHHHHHH | not soluble
15 | MVPAESNAVQAKLAKTLQRFENKIKAGDYYEAHQTLRTIANRYVRSKSYEHAIELISQGALSFLKAKQGGSGTDLIFYLLEVYDLAEVKVDDISVARLVRLIAELDPSEPNLKDVITGMNNWSIKFSEYKFGDPYLHNTIGSKLLEGDFVYEAERYFMLGTHDSMIKYVDLLWDWLCQVDDIEDSTVAEFFSRLVFNYLFISNISFAHESKDIFLERFIEKFHPKYEKIDKNGYEIVFFEDYSDLNFLQLLLITCQTKDKSYFLNLKNHYLDFSQAYKSELEFLGQEYFNIVAPKQTNFLQDMMSGFLGGSK | soluble
16 | MVPITHQNLIEMMTYALVLSGNRVITSGATGTNSAAIKGAMRADPNLLTVILPQSLERQPQESRQQLEQVMHLVENPSNDNLSLAEASYLCNKEIVSRCQQLICFAFHDSRTLLQTCGDAEEQRKVVTLFYFDLEHHHHHH | not soluble
17 | MVQDQIRYDILVQDALRGVIRKVLSEVAKAGLPGSHHFFITFLTNAPGVKISTRLKSRYPEQMTIVLQHQFRDLNVSETAFEVTLSFREVSEKLVIPFHSIQVFYDPVAAFEAAFDLPSNLNSKEGENLENIASTPVILSDTQKKEKKFPKEQISKTNKDSSNNDTKQSADVVSLDSFRKK | not soluble
18 | MVQDWEFIVSFLKINWILMNHVTAPYSYVDVSYDNIPFVGKIPIIGKDGTSSRLGVSPFYPADGNPSNPFPPIYKARPLPLHVPEPQDVVAVPLDEEALHGEPLFPPELILPSELAAEEAAKKKALETKKPENPFADVVETNEQLDTVHWPTAVSTSEIEGEDSQGKNMVQEDEPQRSVIIDEAREKPMQPFEAAKISIGANDRPKNPFRSRRILMERF | not soluble
19 | MVQQKIANLLQGDFRYQIQYNWVSLENISPNIQLAVISSEDQRFLEHLGFDFEAIQRAIRYNEKSNKGIRGASTISQQTAKNLMLWHGQNWLRKGLEVPATMLLELTWSKKRILEVYLNIAEFGNGIFGVEAASRYYFKKSAKNLSQNEAALLAAVLPNPIIYKVNKPSLLVRKKQTWILRQMGNLGTEYLSHL | not soluble
20 | MVQQSEVRQMKHSVSTLNQEMTQLNQETVKITQQNRLNAKSSSGVYLLPGAKTPARLESQIGTLRMSLVNITPDADGTTLTLRIQGESNDPLPAFSGTVEYGQIQGTIDNFQEINVQNQLINAPASVLAPSDVDIPLQLKGISVDQLGFVRIHDIQPVMQLEHHHHHH | soluble
21 | MVRIEVIDIEKPEGVEVIIGQGNFSIFTVDDLARALLTAVPGIKFGIAMNEAKPQLTRYTGNDPELEALAAKNAVKIGAGHVFVILMKNAYPINVLNTIKNHPAVAMIYGASENPFQVIVAETELGRAVIGVVDGKAANKIETDEQKKERRELVEKIGYKID | soluble
22 | MVRVVIESELVRTEKELPNSLKLRQFKDRLYHVTGVEPEDMEIVVKRQYDNKEIYSTKKGGAYSNEDEDANFLKGEEELIVVVTDSNAQSISNQLATQAEGIPSMEVISEEDYLRRDQSVLRWKMAHGYGRFNAAQQSQRAALAKQDEAYAREQLTAAIGRHCRVTVDGSAPREAILRYVGPLPLDVMGTWCGVEFPEAAGKNDGRINGVTLFGPVAPGHGSFVRPRAVEILSKDEESAEVEDVHDDVESDDEI | soluble
23 | MVRYWIYLLSDDVASHYRHRAEKIVELLREHQYAKAPLKAICRKQVEFITERLSFSRLELGLKQYFAGRVGKNLERNMFVLQNDAGEEALLVVQKRRLLLVADSAPLASDIGRALARLSPTFLAVDADFVDYYWLSAPRQGRKFA | not soluble
24 | MVSGGTFNAGVEKIRPGIYTNFKAAAAERTKAGERGTVALPLAASWGAAKEFVEINKEEDVEKKLGLSLAHQSFLLLRETLKLAKTVLVYRLNDGIKATATLATDVVVTAKYGGIVGNSITIKVDENVVDSSKKDVTTYLNEVAVDKQVVGTASELIDSNYVSFKTTSTSELQQSSGTTLVGGTDQPVTNLDYTQFLVSAEGEYFDTIAFPVSSSDVALKTSFVSFVKRMRDEQGVKIKGVVANMPADYEGIINVRNGVTLRDGTILEPHQVVAWVAGADASASMLKSNTFVKYDGAIDATPRLANDEAEEALQNGEFVLTFDARDKAVYVEQDLNSLTTFSKEKSSKFRKNKISRILDGINNDTRRNILDAIKERKDANTDIPADENGVQFILSMQTAYLNELQDSGAITNFDSTADITVSLNNNVDGFIVNQSIEPVDSGEKFYFTTEVKLEHHHHHH | soluble
25 | MVSGYTQSEIDSIAGWLRAGDSASKAAAKLSTMRGRAVSRNAIIGIVHRNAKLAAIGFGRAKSSPASEGSSTYTPEEIKLVADCLKAKRNYVQIAQRLALKSGRIISRFGVKSLIRRTPELNEIGFRGKKGRPSDKKKAAPGQLPGRLFIAATADIDRDPSAFDYLTRPAVRALASQPHFAAMRFVDCLPARCRAPLSYDLEERPGPDMLCCGHLAMPSRSYCAYHEIRLTARKAEFIAEAALEHHHHHH | soluble
